Test results from patent US20230212549A1 (3B PHARMACEUTICALS, published 2023).
Values joined by “and” are separate entries in the source; they are usually repeats but may differ in a detail not shown here. Equal values may be shown once. Numbered stars: 1 amine (or outer) side, 2 acyl side, 3 side chain; on linkers, the order of the positions; unused ones are H or OH. Bridge positions count the residues as written; N and C are the ends. Square brackets hold non-standard residues; d marks the D form. Primed or numbered codes have the meaning given here. * marks the point of attachment. Ttds″ = 1,13-diamino-4,7,10-trioxatridecan-succinamic acid spacer, O=C(CCC(=O)[*:2])NCCCOCCOCCOCCCN[*:1]; DOTA = O=C(O)CN1CCN(CC(=O)O)CCN(CC(=O)*)CCN(CC(=O)O)CC1; mXylylene = c1cc(C[*:1])cc(C[*:2])c1; Hexanoyl = CCCCCC(=O)*; NH(CH2)5NH2 = NCCCCCN*; GABA = NCCCC(=O)O; βAla = NCCC(=O)O

What was measured:
[1] = biological target: Recombinant human FAP (R&D systems, #3715-SE) (human, UniProt Q12884 26-760); assay: cell-based or functional assay
[2] = biological target: T1, fibroblast activation protein (FAP) on FAP-expressing human WI-38 fibroblasts (human, UniProt Q12884 1-760); assay: competitive FACS, WI-38 cells, vs Cy5 tracer m3; A = pIC50 >8.0
T1 construct: also called human FAP

pIC50 Category (Activity) [1]	pIC50 Category (FACS) [2]	Binder
> 8 pIC50	> 8 pIC50	Hexanoyl-CPPTEFCDHFRD-NH2 (linker 1-7 via mXylylene; SMILES CCCCCC(=O)N[C@H]1CSCc2cccc(c2)CSC[C@@H](C(=O)N[C@@H](CC(=O)O)C(=O)N[C@@H](Cc2c[nH]cn2)C(=O)N[C@@H](Cc2ccccc2)C(=O)N[C@@H](CCCNC(=N)N)C(=O)N[C@@H](CC(=O)O)C(N)=O)NC(=O)[C@H](Cc2ccccc2)NC(=O)[C@H](CCC(=O)O)NC(=O)[C@H]([C@@H](C)O)NC(=O)[C@@H]2CCCN2C(=O)[C@@H]2CCCN2C1=O) [Hex-[Cys(3MeBn)-Pro-Pro-Thr-Glu-Phe-Cys]-Asp-His-Phe-Arg-Asp-NH2]
> 8 pIC50	> 8 pIC50	H-[dM]CPPTEFCDHFRD-NH2 (linker 2-8 via mXylylene; SMILES CSCC[C@@H](N)C(=O)N[C@H]1CSCc2cccc(c2)CSC[C@@H](C(=O)N[C@@H](CC(=O)O)C(=O)N[C@@H](Cc2c[nH]cn2)C(=O)N[C@@H](Cc2ccccc2)C(=O)N[C@@H](CCCNC(=N)N)C(=O)N[C@@H](CC(=O)O)C(N)=O)NC(=O)[C@H](Cc2ccccc2)NC(=O)[C@H](CCC(=O)O)NC(=O)[C@H]([C@@H](C)O)NC(=O)[C@@H]2CCCN2C(=O)[C@@H]2CCCN2C1=O, also called 3BP-2976) [H-met-[Cys(3MeBn)-Pro-Pro-Thr-Glu-Phe-Cys]-Asp-His-Phe-Arg-Asp-NH2]
7.1 pIC50 and 8 pIC50	> 8 pIC50	Hexanoyl-CPPTEFC[βAla]-OH (linker 1-7 via mXylylene; SMILES CCCCCC(=O)N[C@H]1CSCc2cccc(c2)CSC[C@@H](C(=O)NCCC(=O)O)NC(=O)[C@H](Cc2ccccc2)NC(=O)[C@H](CCC(=O)O)NC(=O)[C@H]([C@@H](C)O)NC(=O)[C@@H]2CCCN2C(=O)[C@@H]2CCCN2C1=O, also called 3BP-3371) [Hex-[Cys(3MeBn)-Pro-Pro-Thr-Glu-Phe-Cys]-Bal-OH]
> 8 pIC50	> 8 pIC50	Ac-MCPPTEFCDHFRD-NH2 (linker 2-8 via mXylylene; SMILES CSCC[C@H](NC(C)=O)C(=O)N[C@H]1CSCc2cccc(c2)CSC[C@@H](C(=O)N[C@@H](CC(=O)O)C(=O)N[C@@H](Cc2c[nH]cn2)C(=O)N[C@@H](Cc2ccccc2)C(=O)N[C@@H](CCCNC(=N)N)C(=O)N[C@@H](CC(=O)O)C(N)=O)NC(=O)[C@H](Cc2ccccc2)NC(=O)[C@H](CCC(=O)O)NC(=O)[C@H]([C@@H](C)O)NC(=O)[C@@H]2CCCN2C(=O)[C@@H]2CCCN2C1=O, also called 3BP-2975) [Ac-Met-[Cys(3MeBn)-Pro-Pro-Thr-Glu-Phe-Cys]-Asp-His-Phe-Arg-Asp-NH2]
> 8 pIC50	> 8 pIC50	Ac-MCPPTEFCDHARD-NH2 (linker 2-8 via mXylylene; SMILES CSCC[C@H](NC(C)=O)C(=O)N[C@H]1CSCc2cccc(c2)CSC[C@@H](C(=O)N[C@@H](CC(=O)O)C(=O)N[C@@H](Cc2c[nH]cn2)C(=O)N[C@@H](C)C(=O)N[C@@H](CCCNC(=N)N)C(=O)N[C@@H](CC(=O)O)C(N)=O)NC(=O)[C@H](Cc2ccccc2)NC(=O)[C@H](CCC(=O)O)NC(=O)[C@H]([C@@H](C)O)NC(=O)[C@@H]2CCCN2C(=O)[C@@H]2CCCN2C1=O, also called 3BP-3196) [Ac-Met-[Cys(3MeBn)-Pro-Pro-Thr-Glu-Phe-Cys]-Asp-His-Ala-Arg-Asp-NH2]
> 8 pIC50	> 8 pIC50	Ac-MCPPTEFCDHFRA-NH2 (linker 2-8 via mXylylene; SMILES CSCC[C@H](NC(C)=O)C(=O)N[C@H]1CSCc2cccc(c2)CSC[C@@H](C(=O)N[C@@H](CC(=O)O)C(=O)N[C@@H](Cc2c[nH]cn2)C(=O)N[C@@H](Cc2ccccc2)C(=O)N[C@@H](CCCNC(=N)N)C(=O)N[C@@H](C)C(N)=O)NC(=O)[C@H](Cc2ccccc2)NC(=O)[C@H](CCC(=O)O)NC(=O)[C@H]([C@@H](C)O)NC(=O)[C@@H]2CCCN2C(=O)[C@@H]2CCCN2C1=O, also called 3BP-3198) [Ac-Met-[Cys(3MeBn)-Pro-Pro-Thr-Glu-Phe-Cys]-Asp-His-Phe-Arg-Ala-NH2]
7.1 pIC50 and 8 pIC50	> 8 pIC50	Ac-MCPPTEFCDAFRD-NH2 (linker 2-8 via mXylylene; SMILES CSCC[C@H](NC(C)=O)C(=O)N[C@H]1CSCc2cccc(c2)CSC[C@@H](C(=O)N[C@@H](CC(=O)O)C(=O)N[C@@H](C)C(=O)N[C@@H](Cc2ccccc2)C(=O)N[C@@H](CCCNC(=N)N)C(=O)N[C@@H](CC(=O)O)C(N)=O)NC(=O)[C@H](Cc2ccccc2)NC(=O)[C@H](CCC(=O)O)NC(=O)[C@H]([C@@H](C)O)NC(=O)[C@@H]2CCCN2C(=O)[C@@H]2CCCN2C1=O, also called 3BP-3195) [Ac-Met-[Cys(3MeBn)-Pro-Pro-Thr-Glu-Phe-Cys]-Asp-Ala-Phe-Arg-Asp-NH2]
> 8 pIC50	> 8 pIC50	Ac-MCGPTEFCDHFRD-NH2 (linker 2-8 via mXylylene; SMILES CSCC[C@H](NC(C)=O)C(=O)N[C@H]1CSCc2cccc(c2)CSC[C@@H](C(=O)N[C@@H](CC(=O)O)C(=O)N[C@@H](Cc2c[nH]cn2)C(=O)N[C@@H](Cc2ccccc2)C(=O)N[C@@H](CCCNC(=N)N)C(=O)N[C@@H](CC(=O)O)C(N)=O)NC(=O)[C@H](Cc2ccccc2)NC(=O)[C@H](CCC(=O)O)NC(=O)[C@H]([C@@H](C)O)NC(=O)[C@@H]2CCCN2C(=O)CNC1=O, also called 3BP-3214) [Ac-Met-[Cys(3MeBn)-Gly-Pro-Thr-Glu-Phe-Cys]-Asp-His-Phe-Arg-Asp-NH2]
> 8 pIC50	> 8 pIC50	Hexanoyl-CPPTQFCD-{NH(CH2)5NH2-DOTA′} (linker 1-7 via mXylylene, also called 3BP-3403) [Hex-[Cys(3MeBn)-Pro-Pro-Thr-Gln-Phe-Cys]-Asp-Ape-NH-DOTA′]
> 8 pIC50	> 8 pIC50	Hexanoyl-CPPTEFCD[GABA]R-NH2 (linker 1-7 via mXylylene; SMILES CCCCCC(=O)N[C@H]1CSCc2cccc(c2)CSC[C@@H](C(=O)N[C@@H](CC(=O)O)C(=O)NCCCC(=O)N[C@@H](CCCNC(=N)N)C(N)=O)NC(=O)[C@H](Cc2ccccc2)NC(=O)[C@H](CCC(=O)O)NC(=O)[C@H]([C@@H](C)O)NC(=O)[C@@H]2CCCN2C(=O)[C@@H]2CCCN2C1=O, also called 3BP-3300) [Hex-[Cys(3MeBn)-Pro-Pro-Thr-Glu-Phe-Cys]-Asp-Gab-Arg-NH2]
> 8 pIC50	> 8 pIC50	Hexanoyl-CPPTQFCD[Ttds″]K(DOTA)-NH2 (linker 1-7 via mXylylene; SMILES CCCCCC(=O)N[C@H]1CSCc2cccc(c2)CSC[C@@H](C(=O)N[C@@H](CC(=O)O)C(=O)NCCCOCCOCCOCCCNC(=O)CCC(=O)N[C@@H](CCCCNC(=O)CN2CCN(CC(=O)O)CCN(CC(=O)O)CCN(CC(=O)O)CC2)C(N)=O)NC(=O)[C@H](Cc2ccccc2)NC(=O)[C@H](CCC(N)=O)NC(=O)[C@H]([C@@H](C)O)NC(=O)[C@@H]2CCCN2C(=O)[C@@H]2CCCN2C1=O, also called 3BP-3395) [Hex-[Cys(3MeBn)-Pro-Pro-Thr-Gln-Phe-Cys]-Asp-Ttds-Lys(DOTA)-NH2]
> 8 pIC50	> 8 pIC50	Hexanoyl-CPPTEFCD[Ttds″]K(DOTA)-NH2 (linker 1-7 via mXylylene; SMILES CCCCCC(=O)N[C@H]1CSCc2cccc(c2)CSC[C@@H](C(=O)N[C@@H](CC(=O)O)C(=O)NCCCOCCOCCOCCCNC(=O)CCC(=O)N[C@@H](CCCCNC(=O)CN2CCN(CC(=O)O)CCN(CC(=O)O)CCN(CC(=O)O)CC2)C(N)=O)NC(=O)[C@H](Cc2ccccc2)NC(=O)[C@H](CCC(=O)O)NC(=O)[C@H]([C@@H](C)O)NC(=O)[C@@H]2CCCN2C(=O)[C@@H]2CCCN2C1=O, also called 3BP-3396) [Hex-[Cys(3MeBn)-Pro-Pro-Thr-Glu-Phe-Cys]-Asp-Ttds-Lys(DOTA)-NH2]
